In publication PMC7952371:

Molecular target: T1, mixed lineage pseudokinase ligand (human (endogenous in post-mortem brain grey matter)), Q8NB16
T1 chain: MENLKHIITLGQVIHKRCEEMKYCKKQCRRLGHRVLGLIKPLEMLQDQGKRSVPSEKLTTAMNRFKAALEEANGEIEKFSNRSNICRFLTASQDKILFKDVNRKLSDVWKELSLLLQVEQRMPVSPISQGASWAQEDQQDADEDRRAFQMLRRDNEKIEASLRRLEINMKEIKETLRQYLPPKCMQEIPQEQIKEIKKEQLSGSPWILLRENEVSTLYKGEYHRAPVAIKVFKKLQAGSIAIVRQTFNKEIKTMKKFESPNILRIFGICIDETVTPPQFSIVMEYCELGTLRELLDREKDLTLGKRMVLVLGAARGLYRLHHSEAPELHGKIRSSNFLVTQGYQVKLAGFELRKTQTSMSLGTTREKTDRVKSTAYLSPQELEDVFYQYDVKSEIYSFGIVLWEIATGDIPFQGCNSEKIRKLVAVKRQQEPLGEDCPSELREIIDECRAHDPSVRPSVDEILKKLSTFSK
Assay: non-reducing gel electrophoresis and Western blot; MS grey matter extracted in native conditions (TBS, 0.1% Triton X-100); 3-8% Tris-acetate gels in non-reducing conditions; blot for MLKL
Settings: remark: other sources report otherwise

B1: mixed lineage pseudokinase ligand, Q8NB16 1-471 (natural protein)
chain: T1 chain
In the case of B1, the stoichiometry N is reported as 4.
